Measurements taken from the supplement of paper PMC10724198.
± gives the standard deviation of the averaged measurements.

How the values were obtained:
Saccharomyces cerevisiae [1] = assay: protein stability index of tFT-peptide fusion (C-terminal peptide) (PSI (0-1 scale)); higher = more stable (slower turnover)
Experimental: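 MPS profiling in S. cerevisiae of the tFT-X12 degron library: putative degron peptides plus stable controls, 12 aa, fused to the C-terminus of a sfGFP-mCherry timer. Cells are FACS-sorted into 8 mCherry/sfGFP bins and deep-sequenced. PSI runs from 0 (unstable) to 1 (stable). Backgrounds are wild type, das1Δ and doa10Δ at 30 °C, and wild type, das1Δ, cdc34-1 and cdc53-1 at 37 °C; 2-3 technical replicates each.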

Saccharomyces cerevisiae [2] = assay: as above; details: genetic background: wild type; temperature: 30 C
[3] = genetic background: cdc34-1, temperature: 37 C
[4] = genetic background: cdc53-1, temperature: 37 C
[5] = genetic background: das1 deletion, temperature: 30 C
[6] = genetic background: das1 deletion, temperature: 37 C
[7] = genetic background: doa10 deletion, temperature: 30 C
[8] = genetic background: wild type, temperature: 30 C
[9] = genetic background: wild type, temperature: 37 C
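Also: PSI is a weighted mean of sequencing reads over stability bins, variants kept only with over 10 reads, mCherry proximal and sfGFP distal, peptide attached via GGGS linker.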

Row | Sequence | protein stability index (Saccharomyces cerevisiae [1]; [3]) | protein stability index (Saccharomyces cerevisiae [1]; [4]) | protein stability index (Saccharomyces cerevisiae [1]; [5]) | protein stability index (Saccharomyces cerevisiae [1]; [6]) | protein stability index (Saccharomyces cerevisiae [1]; [7]) | protein stability index (Saccharomyces cerevisiae [1]; [8]) | protein stability index (Saccharomyces cerevisiae [1]; [9]) | protein stability index (Saccharomyces cerevisiae [2])
1 | PSFVEVAFAVCC | 0.569 ± 0.037 | 0.555 ± 0.039 | 0.347 ± 0.045 | 0.5575 ± 0.0034 | 0.339 ± 0.03 | 0.366 ± 0.0077 | 0.541 ± 0.019 | 0.451 ± 0.058
2 | PTKRLFNNNKKI | 0.589 ± 0.13 | 0.686 ± 0.057 | 0.649 ± 0.03 | 0.731 ± 0.013 | 0.184 ± 0.0066 | 0.161 ± 0.03 | 0.408 ± 0.024 | 0.308 ± 0.015
3 | PWAQCVLLWVVV | 0.459 ± 0.043 | 0.495 ± 0.021 | 0.397 ± 0.032 | 0.5401 ± 0.0014 | 0.329 ± 0.015 | 0.359 ± 0.025 | 0.4776 ± 0.004 | 0.457 ± 0.0064
4 | PWIASCRISFLL | 0.6766 ± 0.0032 | 0.734 ± 0.014 | 0.6 ± 0.0099 | 0.7393 ± 0.0037 | 0.338 ± 0.0046 | 0.347 ± 0.012 | 0.532 ± 0.029 | 0.402 ± 0.0046
5 | QARVFWIIIGTA | 0.33 ± 0.029 | 0.412 ± 0.03 | 0.241 ± 0.029 | 0.482 ± 0.011 | 0.163 ± 0.011 | 0.194 ± 0.026 | 0.376 ± 0.023 | 0.343 ± 0.0078
6 | QFLSLSLPFALF | 0.7057 ± 0.0026 | 0.763 ± 0.014 | 0.64 ± 0.029 | 0.748 ± 0.054 | 0.428 ± 0.041 | 0.45 ± 0.019 | 0.636 ± 0.052 | 0.524 ± 0.036
7 | QHIDTLAKTHIT | 0.73 ± 0.036 | 0.74493 ± 0.00055 | 0.632 ± 0.008 | 0.7219 ± 0.005 | 0.605 ± 0.03 | 0.634 ± 0.033 | 0.7 ± 0.012 | 0.606 ± 0.15
8 | QTGRVRGFVVSG | 0.689 ± 0.037 | 0.726 ± 0.024 | 0.632 ± 0.032 | 0.723 ± 0.02 | 0.645 ± 0.021 | 0.65 ± 0.008 | 0.719 ± 0.028 | 0.701 ± 0.048
9 | RALCPVPLLASS | 0.55 ± 0.0098 | 0.59 ± 0.034 | 0.435 ± 0.026 | 0.5981 ± 0.00094 | 0.427 ± 0.026 | 0.455 ± 0.018 | 0.553 ± 0.024 | 0.502 ± 0.1
10 | RCFLPVFCFVVF | 0.275 ± 0.0069 | 0.272 ± 0.0068 | 0.242 ± 0.037 | 0.413 ± 0.006 | 0.278 ± 0.014 | 0.227 ± 0.023 | 0.36 ± 0.0038 | 0.314 ± 0.018
11 | RDWCYFIRVCSV | 0.604 ± 0.064 | 0.616 ± 0.017 | 0.479 ± 0.026 | 0.6139 ± 0.006 | 0.364 ± 0.015 | 0.382 ± 0.021 | 0.561 ± 0.01 | 0.383 ± 0.12
12 | RFACHDFVVLLC | 0.568 ± 0.023 | 0.605 ± 0.022 | 0.453 ± 0.017 | 0.626 ± 0.026 | 0.172 ± 0.0095 | 0.17 ± 0.029 | 0.303 ± 0.017 | 0.289 ± 0.0045
13 | RFFLFVFFCFGF | 0.384 ± 0.0046 | 0.387 ± 0.038 | 0.383 ± 0.034 | 0.4787 ± 0.0021 | 0.402 ± 0.0047 | 0.365 ± 0.045 | 0.437 ± 0.013 | 0.436 ± 0.014
14 | RFLCFDSVLTLC | 0.626 ± 0.011 | 0.6674 ± 0.0055 | 0.56 ± 0.028 | 0.6748 ± 0.00086 | 0.32119 ± 0.00015 | 0.348 ± 0.026 | 0.546 ± 0.02 | 0.463 ± 0.024
15 | RFQKTRIFRCLC | 0.455 ± 0.002 | 0.66 ± 0.015 | 0.57 ± 0.022 | 0.6796 ± 0.0058 | 0.0979 ± 0.0052 | 0.117 ± 0.015 | 0.137 ± 0.0058 | 0.18 ± 0.028
16 | RFTCCISLSFLM | 0.498 ± 0.013 | 0.492 ± 0.044 | 0.467 ± 0.011 | 0.472 ± 0.014 | 0.491 ± 0.059 | 0.489 ± 0.033 | 0.4341 ± 0.0021 | 0.489 ± 0.01
17 | RFTFSVVFCLSF | 0.465 ± 0.011 | 0.5 ± 0.018 | 0.432 ± 0.011 | 0.504 ± 0.023 | 0.451 ± 0.022 | 0.436 ± 0.026 | 0.47 ± 0.012 | 0.47 ± 0.038
18 | RGDWPVFIQVKA | 0.285 ± 0.032 | 0.309 ± 0.04 | 0.262 ± 0.035 | 0.426 ± 0.022 | 0.205 ± 0.022 | 0.255 ± 0.043 | 0.387 ± 0.023 | 0.418 ± 0.05
19 | RGGGGGTWVKMG | 0.592 ± 0.011 | 0.733 ± 0.0075 | 0.653 ± 0.029 | 0.758 ± 0.012 | 0.118 ± 0.025 | 0.135 ± 0.02 | 0.217 ± 0.016 | 0.258 ± 0.055
20 | RHCCIVPLCRVR | 0.491 ± 0.061 | 0.512 ± 0.013 | 0.324 ± 0.028 | 0.555 ± 0.028 | 0.285 ± 0.013 | 0.321 ± 0.028 | 0.507 ± 0.0081 | 0.464 ± 0.045

Row | Sequence | protein stability index (Saccharomyces cerevisiae [1]; [3]) | protein stability index (Saccharomyces cerevisiae [1]; [4]) | protein stability index (Saccharomyces cerevisiae [1]; [5]) | protein stability index (Saccharomyces cerevisiae [1]; [6]) | protein stability index (Saccharomyces cerevisiae [1]; [7]) | protein stability index (Saccharomyces cerevisiae [1]; [8]) | protein stability index (Saccharomyces cerevisiae [1]; [9]) | protein stability index (Saccharomyces cerevisiae [2])
21 | RHSFSRVKLIQF | 0.593 ± 0.046 | 0.6834 ± 0.00096 | 0.65 ± 0.032 | 0.732 ± 0.0089 | 0.0871 ± 0.021 | 0.0925 ± 0.033 | 0.117 ± 0.0029 | 0.113 ± 0.033
22 | RILKEFKRIAVL | 0.501 ± 0.05 | 0.687 ± 0.092 | 0.479 ± 0.024 | 0.7193 ± 0.006 | 0.093 ± 0.0061 | 0.0985 ± 0.016 | 0.139 ± 0.032 | 0.168 ± 0.031
23 | RIYIRVSLIAPR | 0.523 ± 0.026 | 0.59 ± 0.05 | 0.48 ± 0.021 | 0.5646 ± 0.0015 | 0.496 ± 0.034 | 0.48 ± 0.014 | 0.537 ± 0.017 | 0.509 ± 0.14
24 | RLFMVLYRRFVL | 0.67 ± 0.052 | 0.72 ± 0.013 | 0.626 ± 0.019 | 0.716 ± 0.018 | 0.443 ± 0.015 | 0.45 ± 0.023 | 0.608 ± 0.016 | 0.491 ± 0.069
25 | RLVWGGLEMFVC | 0.511 ± 0.024 | 0.627 ± 0.013 | 0.496 ± 0.026 | 0.654 ± 0.0094 | 0.109 ± 0.019 | 0.131 ± 0.0028 | 0.21 ± 0.0073 | 0.235 ± 0.043
26 | RPALVSIFLSAY | 0.555 ± 0.018 | 0.567 ± 0.023 | 0.4 ± 0.023 | 0.553 ± 0.0066 | 0.38 ± 0.017 | 0.38 ± 0.021 | 0.532 ± 0.0076 | 0.444 ± 0.027
27 | RPLRRPRLPLLL | 0.654 ± 0.014 | 0.698 ± 0.025 | 0.646 ± 0.0082 | 0.6926 ± 0.0026 | 0.363 ± 0.011 | 0.397 ± 0.035 | 0.581 ± 0.01 | 0.4634 ± 0.0032
28 | RQFRNPLYAFVC | 0.496 ± 0.043 | 0.687 ± 0.011 | 0.566 ± 0.019 | 0.697 ± 0.014 | 0.124 ± 0.0069 | 0.137 ± 0.0092 | 0.187 ± 0.035 | 0.193 ± 0.021
29 | RQRQLAKKQKNA | 0.601 ± 0.043 | 0.7044 ± 0.0043 | 0.646 ± 0.0074 | 0.73 ± 0.0076 | 0.141 ± 0.032 | 0.181 ± 0.021 | 0.306 ± 0.038 | 0.322 ± 0.016
30 | RRFKINKKNKKF | 0.683 ± 0.028 | 0.749 ± 0.035 | 0.64 ± 0.048 | 0.761 ± 0.016 | 0.172 ± 0.026 | 0.189 ± 0.061 | 0.524 ± 0.12 | 0.339 ± 0.052
31 | RRWGFRSFLVGI | 0.728 ± 0.018 | 0.7869 ± 0.0035 | 0.712 ± 0.026 | 0.803 ± 0.026 | 0.645 ± 0.041 | 0.647 ± 0.022 | 0.7579 ± 0.0061 | 0.7307 ± 0.0056
32 | RSGGVPGFGRLC | 0.703 ± 0.033 | 0.7361 ± 0.0064 | 0.661 ± 0.02 | 0.7301 ± 0.003 | 0.658 ± 0.034 | 0.653 ± 0.022 | 0.723 ± 0.037 | 0.745 ± 0.014
33 | RSLRLFGCLGSL | 0.756 ± 0.029 | 0.762 ± 0.027 | 0.647 ± 0.019 | 0.751 ± 0.021 | 0.658 ± 0.039 | 0.647 ± 0.023 | 0.753 ± 0.016 | 0.7185 ± 0.0059
34 | RSWMRHVLRVAS | 0.543 ± 0.048 | 0.701 ± 0.0072 | 0.525 ± 0.026 | 0.719 ± 0.025 | 0.0958 ± 0.0031 | 0.104 ± 0.01 | 0.154 ± 0.013 | 0.194 ± 0.004
35 | RVDEVVKKLRTL | 0.62 ± 0.027 | 0.665 ± 0.047 | 0.667 ± 0.012 | 0.707 ± 0.0091 | 0.0971 ± 0.035 | 0.107 ± 0.028 | 0.17 ± 0.025 | 0.195 ± 0.043
36 | RVHYELEQIVIK | 0.632 ± 0.1 | 0.699 ± 0.019 | 0.581 ± 0.0072 | 0.664 ± 0.059 | 0.585 ± 0.053 | 0.574 ± 0.025 | 0.62 ± 0.064 | 0.518 ± 0.089
37 | RVSVNDGRRDSV | 0.712 ± 0.046 | 0.723 ± 0.016 | 0.652 ± 0.039 | 0.73 ± 0.013 | 0.681 ± 0.011 | 0.664 ± 0.015 | 0.707 ± 0.022 | 0.557 ± 0.18
38 | RWFPPPQYLRLV | 0.567 ± 0.021 | 0.648 ± 0.014 | 0.598 ± 0.02 | 0.68556 ± 0.00021 | 0.19 ± 0.032 | 0.163 ± 0.019 | 0.397 ± 0.024 | 0.288 ± 0.011
39 | RYEKIIKQINKQ | 0.609 ± 0.062 | 0.738 ± 0.015 | 0.655 ± 0.037 | 0.7664 ± 0.0071 | 0.13 ± 0.034 | 0.164 ± 0.06 | 0.429 ± 0.011 | 0.268 ± 0.044
